Results taken from patent publication US20130052712.

System: mussel adhesive protein fp-151
Sequence (chain, as listed by the source): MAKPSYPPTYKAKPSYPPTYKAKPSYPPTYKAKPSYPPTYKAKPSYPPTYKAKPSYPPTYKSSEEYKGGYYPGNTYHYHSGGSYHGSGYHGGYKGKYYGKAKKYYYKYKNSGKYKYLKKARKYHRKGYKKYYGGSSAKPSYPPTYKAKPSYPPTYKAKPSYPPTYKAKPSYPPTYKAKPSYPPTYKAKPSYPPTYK

Substance: alkaline phosphatase
- activity of alkaline phosphatase remaining on the nanofiber (conversion of pNPP, absorbance at 405 nm): alkaline phosphatase is coated only on PCL/fp-151 nanofiber to exhibit the activity
